Paper PMC8184781, “A histone H3K4me1-specific binding protein is required for siRNA accumulation and DNA methylation at a subset of loci targeted by RNA-directed DNA methylation” (Nature Communications, 2021)

Target: H4K20me1 peptide (monomethyllysine at K20)
Assay: ITC; Microcal PEAQ-ITC; peptide (about 1.0–1.5 mM) and protein (about 0.8–0.12 mM as printed) in 100 mM NaCl, 20 mM HEPES pH 7.0, 2 mM β-mercaptoethanol; 20 °C
Settings: both partners purified

Kd: 22.9 µM
B1: RDM15 Tudor domain (residues 598–662) (domain or fragment, Arabidopsis thaliana, UniProt Q8GUP3 598-662, looked up)
chain: LGQGKASGESLVGSRIKVWWPMDQAYYKGVVESYDAAKKKHLVIYDDGDQEILYLKNQKWSPLDE
notes: A Se-Met labelled form was also made; the structure was solved by SAD, so the crystal may hold the Se-Met protein; also called C-terminal Tudor domain of RDM15; source: E. coli BL21(DE3), purified (HisTrap, ulp1 digestion, second HisTrap, Superdex G75)
